Among the data in publication PMC9481464 are response (relative to RagBlong Q127L (set to 1)) values, retold here.

This experiment deals with GTP. Description: GTP pull-down, quantified blot. The conditions noted are these: + Mg2+; co-expressed with HA-RagC S75N; read off a plot.

With “RagB^long (from UniProt Q5VZM2) Q127L; L94A”, the response (relative to RagBlong Q127L (set to 1)) was 1.8.

In the case of RagB^long (from UniProt Q5VZM2) Q127L, the response (relative to RagBlong Q127L (set to 1)) is 1.

For “RagB^long (from UniProt Q5VZM2) Q127L; D96A”, the response (relative to RagBlong Q127L (set to 1)) was determined as 0.9.
